# Measured values published in patent EP4663654A1 (Hangzhou Sciwind Biosciences Co., Ltd., dated 2025).
# Starred links: 1 amine or outer side, 2 acyl side, 3 side chain; linkers in the order of their positions; H or OH if unused. Non-standard residues stand in square brackets, D forms with d. *: point of attachment. C20 diacid = O=C(O)CCCCCCCCCCCCCCCCCCC(=O)*; γGlu = O=C(O)[C@H](CCC(=O)[*:2])N[*:1]; Hyp = O=C(O)[C@@H]1C[C@@H](O)CN1
# T1: human amylin receptor (AMY3) on CHO-K1/Ga15/AMY3 amylin receptor/CRE-luc cells (human, UniProt P30988 25-474; O60896 24-148)
# T1 sequence (looked up) 1: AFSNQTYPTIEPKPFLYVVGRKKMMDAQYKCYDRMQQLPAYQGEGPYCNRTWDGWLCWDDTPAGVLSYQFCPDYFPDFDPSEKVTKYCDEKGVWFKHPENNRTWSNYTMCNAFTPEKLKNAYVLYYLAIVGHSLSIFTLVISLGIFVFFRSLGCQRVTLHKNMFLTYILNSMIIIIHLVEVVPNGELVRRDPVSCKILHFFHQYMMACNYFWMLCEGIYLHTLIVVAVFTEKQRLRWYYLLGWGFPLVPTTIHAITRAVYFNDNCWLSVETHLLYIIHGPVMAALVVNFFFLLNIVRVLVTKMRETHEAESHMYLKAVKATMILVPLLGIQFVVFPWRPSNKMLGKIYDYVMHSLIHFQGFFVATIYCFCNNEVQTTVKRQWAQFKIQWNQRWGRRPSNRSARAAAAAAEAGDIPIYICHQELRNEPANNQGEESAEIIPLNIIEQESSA
# T1 sequence (looked up) 2: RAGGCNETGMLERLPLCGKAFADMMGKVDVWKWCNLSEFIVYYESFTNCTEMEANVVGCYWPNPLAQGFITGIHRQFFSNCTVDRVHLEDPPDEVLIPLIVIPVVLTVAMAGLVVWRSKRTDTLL
# B1: polypeptide derivative M51 (peptide)
# peptide: {C20 diacid-γGlu}-ASQLSTAATQRLADFLRHSSGNLKPILPPTNVGSNT[Hyp]-NH2
# SMILES: CC[C@H](C)[C@H](NC(=O)[C@@H]1CCCN1C(=O)[C@H](CCCCN)NC(=O)[C@H](CC(C)C)NC(=O)[C@H](CC(N)=O)NC(=O)CNC(=O)[C@H](CO)NC(=O)[C@H](CO)NC(=O)[C@H](Cc1c[nH]cn1)NC(=O)[C@H](CCCNC(=N)N)NC(=O)[C@H](CC(C)C)NC(=O)[C@H](Cc1ccccc1)NC(=O)[C@H](CC(=O)O)NC(=O)[C@H](C)NC(=O)[C@H](CC(C)C)NC(=O)[C@H](CCCNC(=N)N)NC(=O)[C@H](CCC(N)=O)NC(=O)[C@@H](NC(=O)[C@H](C)NC(=O)[C@H](C)NC(=O)[C@@H](NC(=O)[C@H](CO)NC(=O)[C@H](CC(C)C)NC(=O)[C@H](CCC(N)=O)NC(=O)[C@H](CO)NC(=O)[C@H](C)NC(=O)CC[C@H](NC(=O)CCCCCCCCCCCCCCCCCCC(=O)O)C(=O)O)[C@@H](C)O)[C@@H](C)O)C(=O)N[C@@H](CC(C)C)C(=O)N1CCC[C@H]1C(=O)N1CCC[C@H]1C(=O)N[C@H](C(=O)N[C@@H](CC(N)=O)C(=O)N[C@H](C(=O)NCC(=O)N[C@@H](CO)C(=O)N[C@@H](CC(N)=O)C(=O)N[C@H](C(=O)N1C[C@H](O)C[C@H]1C(N)=O)[C@@H](C)O)C(C)C)[C@@H](C)O
# B2: polypeptide derivative M52 (peptide)
# peptide: {C20 diacid-γGlu}-ASQLSTAATQRLADFLRHSSHNLKPILPPTNVGSNT[Hyp]-NH2
# SMILES: CC[C@H](C)[C@H](NC(=O)[C@@H]1CCCN1C(=O)[C@H](CCCCN)NC(=O)[C@H](CC(C)C)NC(=O)[C@H](CC(N)=O)NC(=O)[C@H](Cc1c[nH]cn1)NC(=O)[C@H](CO)NC(=O)[C@H](CO)NC(=O)[C@H](Cc1c[nH]cn1)NC(=O)[C@H](CCCNC(=N)N)NC(=O)[C@H](CC(C)C)NC(=O)[C@H](Cc1ccccc1)NC(=O)[C@H](CC(=O)O)NC(=O)[C@H](C)NC(=O)[C@H](CC(C)C)NC(=O)[C@H](CCCNC(=N)N)NC(=O)[C@H](CCC(N)=O)NC(=O)[C@@H](NC(=O)[C@H](C)NC(=O)[C@H](C)NC(=O)[C@@H](NC(=O)[C@H](CO)NC(=O)[C@H](CC(C)C)NC(=O)[C@H](CCC(N)=O)NC(=O)[C@H](CO)NC(=O)[C@H](C)NC(=O)CC[C@H](NC(=O)CCCCCCCCCCCCCCCCCCC(=O)O)C(=O)O)[C@@H](C)O)[C@@H](C)O)C(=O)N[C@@H](CC(C)C)C(=O)N1CCC[C@H]1C(=O)N1CCC[C@H]1C(=O)N[C@H](C(=O)N[C@@H](CC(N)=O)C(=O)N[C@H](C(=O)NCC(=O)N[C@@H](CO)C(=O)N[C@@H](CC(N)=O)C(=O)N[C@H](C(=O)N1C[C@H](O)C[C@H]1C(N)=O)[C@@H](C)O)C(C)C)[C@@H](C)O
# Molecular target: T1, human amylin receptor (AMY3) on …
# Assay: cell-based or functional assay
Binder,"EC50/nM, CRE-luciferase reporter in amylin receptor/CRE-luc CHO cells",Relative activity (the EC50 ratio of Cagrilintide to the compound)
B1,0.08 nM,163%
B2,0.09 nM,178%
